# From patent US12258605B2, “Alkane oxidation by modified hydroxylases” (The California Institute of Technology, priority 2005, dated 2025)
# B1: 35-E11: P450 BM-3 variant, SEQ ID NO:7: 53-5H substitutions plus E464G and I710T (protein)
# chain: TIKEMPQPKTFGELKNLPLLNTDKPVQALMKIADELGEIFKFEAPGCVTRYLSSQRLIKEACDESRFDKNLSQALKFFRDFSGDGLFTSWTHEINWKKAHNILLPSFSQQAMKGYHAMMVDIAVQLVQKWERLNADEHIEVSEDMTRLTLDTIGLCGFNYRFNSFYRDQPHPFIISMVRALDEVMNKLQRANPDDPAYDENKRQCQEDIKVMNDLVDKIIADRKARGEQSDDLLTQMLNGKDPETGEPLDDGNISYQIITFLIAGHETTSGLLSFALYFLVKNPHVLQKVVEEAARVLVDPVPSYKQVKQLKYVGMVLNEALRLWPTFPAFSLYAKEDTVLGGEYPLEKGDEVMVLIPQLHRDKTIWGDDVEEFRPERFENPSAIPQHAFKPFGNGQRACIGQQFALHEATLVLGMMLKHFDFEDHTNYELDIKETLTLKPEGFVVKAKSKKIPLGGIPSPSTGQSAKKVRKKAENAHNTPLLVLYGSNMGTAEGTARDLADIAMSKGFAPQVATLDSHAGNLPREGAVLIVTASYNGHPPDNAKQFVDWLDQASADEVKGVRYSVFGCGDKNWATTYQKVPAFIDETLAAKGAENIADRGEADASDDFEGTYEEWREHMWSDVAAYFNLDIENSEDNKSTLSLQFVDSAADMPLAKMHGAFSTNVVASKELQQPGSARSTRHLEIELPKEASYQEGDHLGVIPRNYEGTVNRVTARFGLDASQQIRLEAEEEKLAHLPLAKTVSVEELLQYVELQDPVTRTQLRAMAAKTVCPPHKVELEALLEKQAYKEQVLAKRLTMLELLEKYPACEMKFSEFIALLPSIRPRYYSISSSPRVDEKQASITVSVVSGEAWSGYGEYKGIASNYLAELQEGDTITCFISTPQSEFTLPKDPETPLIMVGPGTGVAPFRGFVQARKQLKEQGQSLGEAHLYFGCRSPHEDYLYQEELENAQSEGIITLHTAFSRMPNQPKTYVQHVMEQDGKKLIELLDQGAHFYICGDGSQMAPAVEATLMKSYADVHQVSEADARLWLQQLEEKGRYAKDVWAG
# modifications: mutant P450 35-E11 protein sequence
# What was measured:
# [1] = Octane hydroxylation (rate, ttn, regio- and enantioselectivity); assay type: biochemical
# Experimental: (§1) Cell lysates for high throughput screening were prepared as described previously (Peters et al., J. Am. Chem. Soc. 125:13442 (2003); incorporated by reference herein). High-throughput dimethyl ether (DME) screens were performed in 96 well plates as described previously. Improved mutants were selected based on an increased signal compared to 9-10A (for the saturation mutagenesis libraries) and 1-12G (for the recombination library). Reactions on octane and propane were analyzed by gas chromatography as described.
# Rates of ethanol formation were measured over 30 min using gas chromatography (GC) coupled to an electron capture detector (ECD) and are reported as nmol ethanol/min/nmol enzyme. Errors are at most 10%. Total turnover number (ttn) was measured using GC after completion of the reaction and is reported as nmol product/nmol protein. Errors are at most 10%. Initial rates of propanol and octanol formation were measured over 1 min by GC and are reported as nmol product/min/nmol protein. Errors are at most 15%. The “ee” of 2-octanol (main product) was measured by GC; the favored enantiomer is listed in parenthesis. Wild-type P450 BM-3 primarily produces 3- and 4-octanol. The yields were not sufficient for the determination of ee for wt BM-3. Mutant 9-10A contains amino acid substitutions R47C, V78A K94I, P142S, T175I, A184V, F205C, S226R, H236Q, E252G, R255S, A290V, and L353V.
# In Table 5 the product distribution is determined as ratio of a specific alcohol product to the total amount of all alcohol products (given in %). The product distribution for ketones was similar to alcohol product distribution. The numbers reported here are the (%) total of all ketones relative to total products (alcohols+ketones). The favored enantiomer is listed in parentheses.
# For the data shown in Table 6 the initial NADPH consumption rates were measured over 15 seconds at 340 nm as nmol NADPH/min/nmol protein. Octane reactions contained 100 nM P450, 166 uM NADPH, and 4 mM octane in 1% ethanol and potassium phosphate buffer. […] Errors are at most 10%. Initial rates were measured by GC over 1 minute as nmol total products/min/nmol protein. Octane reactions contained 100 nM P450, 500 uM NADPH, and 4 mM octane in 1% ethanol and potassium phosphate buffer. Propane reactions contained 1 uM P450, 500 uM NADPH, and propane-saturated potassium phosphate buffer. Coupling was determined by ratio of product formation rate to NADPH consumption rate. Total turnover numbers were determined as nmol product/nmol enzyme. Octane reactions contained 10-25 nM P450, 500 uM NADPH, and 4 mM octane in 1% ethanol and potassium phosphate buffer. Propane reactions contained 10-25 nM protein, potassium phosphate buffer saturated with propane, and an NADPH regeneration system containing 100 uM NADP+, 2 U/mL isocitrate dehydrogenase, and 10 mM isocitrate.
# Twenty-one single active site mutants with increased activity towards either of these substrates were isolated. Mutations that improved the activity were found at amino acid positions L75 (I, W), A78 (T, F, S), A82 (T, S, F, I, C, G, L), F87 (I, V, L), T88 (C), T260 (N, L, S) and A328 (L, F, M). The single active site mutants of 9-10A were characterized by their altered regioselectivity towards octane. Each of these mutations produces a characteristic octanol product distribution as a result of their presence altering the active site geometry above the heme cofactor. Transformations were carried out using cell lysates. The mutations were generated in variant 9-10A (with amino acid mutations R47C, V78A, K94I, P142S, T175I, A184V, F205C, S226R, H236Q, E252G, R255S, A290V, L353V). “Others” indicates over oxidation products (ketones and aldehydes) with a similar product distribution as the alcohols. “Rate” was measured as nmol octanol/nmol P450/minute. “TTN” was measured as nmol octanol/nmol P450 produced in 4 hour reaction.
# Mutations are relative to variant 9-10A (described above). Wild-type has a valine at position 78. […]
# [2] = High-throughput dimethyl ether (DME) screen; assay type: biochemical; conditions: relative to 35-E11; normalized to P450 concentration
# Experimental: as §1
# Libraries of mutants of 35-E11 were screened for phenotypes indicative of either increased product formation on small gaseous substrates slightly larger than methane. Additionally, they were screened for increased coupling of the consumption of NADPH reducing equivalents to product formation. Product formation was determined by measuring total amount of dimethyl ether hydroxylation while increased coupling was determined primarily by decreased background NADPH consumption rates (measured spectrophotometrically at 340 nm in the absence of substrate).
# The relative dimethyl ether (DME) activity was measured, 1 hour after treatment with Purpald, as the average net and absorbance at 550 nm from 8 microtitre plate DME reactions of the mutant compared to 8 equivalent reactions of 35-E11. All values were normalized by measuring the P450 concentration in each well with CO binding. “Asteriks” indicate criteria used to select mutants from libraries for further characterization. The oxidation rate is measured as absorbance change at 340 nm over 1 minute upon the addition of NADPH to 8 microtitre plate wells containing P450-containing cell lysate and compared to 8 equivalent reactions of 35-E11. All values were normalized by measuring the P450 concentration in each well with CO binding. The total turnover number (TTN) was measured as the absorbance at 550 nm of methane reactions with each mutant after treatment with alcohol oxidase and
# Screening libraries by spectroscopically monitoring NADPH consumption rates in the presence of the alkane often selects for mutants with NADPH oxidation rates highly uncoupled to product formation. This can be overcome through the use of surrogate substrates that mimic desired substrates, yet yield species when hydroxylated that are easily detected either directly or with the addition of a dye. For example, the screen for the high-throughput identification of mutant BM-3 enzymes with activity towards propane as described previously uses dimethyl ether (DME) as a propane surrogate substrate. Upon hydroxylation, it decomposes into methanol and dye-sensitive formaldehyde. In addition, hexyl methyl ether (HME) may be used as a surrogate for octane. It shares most of the physical properties of octane, including solubility in buffer, size, shape, and strength of its C—H bonds. When HME is hydroxylated at its methoxy carbon, it also produces an equivalent of formaldehyde which is visually detected at concentrations as low as 10 μM with the dye Purpald (see FIG. 25). Hexanal, the aldehyde product formed when the α-carbon of the hexyl group is hydroxylated, is practically unreactive towards Purpald at some concentrations used in the present screens. Formaldehyde is approximately 42 times more sensitive to Purpald than hexanal (see FIG. 26). This disproportionate response makes HME, in contrast to the symmetric ether DME, a regio-selective screen for terminal alkane hydroxylation.
# High-throughput screening. Single colonies were picked and inoculated by a Qpix robot (Genetix, Beaverton, OR) into 1-mL, deep-well plates containing LB (Amp*) medium (400 μL). The plates were incubated at 30° C., 250 rpm, and 80% relative humidity. After 24 h, 50 μL from this pre-culture were used to inoculate a 2-mL, deep-well plates containing […] TB (Amp^+) medium per well. Cultures were grown at 37° C., 220 rpm, and 80% relative humidity. […]
molecule,measurement,setting,value
B1,Octane ttn,[1]; 1% ethanol,8000 nmol product/nmol protein
same,Octane % ee,"[1]; ee of 2-octanol (main product), favored enantiomer (S)",65%
same,Octane Rate,"[1]; initial rate of octanol formation over 1 min, 1% ethanol",420 nmol product/min/nmol protein
same,Octane % 2-octanol,[1]; regioselectivity,89%
same,Relative DME activity in screen,[2],1
